Reference: the supplement of paper PMC11780869

Tested on: Bacillus subtilis
Assay: cleaved RNA product abundance (RNA/gDNA barcode ratio) relative to median wild-type variant (ratio to wild type); higher = more accumulation of the downstream cleavage product
Outline: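 The B. subtilis chromosome carried reporter mRNAs, truncated aprE or tetM, containing barcoded RNase Y cleavage-site windows mutagenized using oligos with a 9% error rate. After growth in LB at 37°C from OD600 0.0003 to 0.3, cleaved RNA was gel-selected, reverse transcribed and barcode-sequenced next to genomic DNA barcodes, with UMI collapsing. Each construct's RNA:gDNA barcode ratio was scaled to the median construct with the unmutated site. That scaled ratio is reported as cleaved product abundance.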

[1] = experiment (reporter, strain, medium): exp 2b: truncated aprE reporter, strain BJT200, cleavage site: cggR-gapA (positions -7 to +36 mutated)
[2] = experiment (reporter, strain, medium): exp 4a: truncated aprE reporter, strain BJT201 with 2% xylose (RNase J1 expressed), cleavage site: cggR-gapA (positions -7 to +36 mutated)
[3] = experiment (reporter, strain, medium): exp 8a: truncated aprE reporter, strain BJT201 with 2% xylose (RNase J1 expressed), cleavage site: glnRA (positions -5 to +31 mutated)
[4] = experiment (reporter, strain, medium): exp 6: tetM reporter, strain 168, cleavage site: cggR-gapA (positions -7 to +36 mutated)

Sequence	cleaved RNA product abundance [1]	cleaved RNA product abundance [2]	cleaved RNA product abundance [3]	cleaved RNA product abundance [4]
ACAGACGAAGGAGCCGCAAAGAAGTTATTAAAGGATAAATAATCCCTCAATATAAATATCTCTCACTTATTTAAA	0.108	0.139		
CGACATGTCCCGCTTCTTTCATTAATCCGTGAGCAACTGTTTTGATATATACATTTACCTTTTAAGAGGAGGAAT			0.427	
ACAGACGAAGGAGCCGCAAAGAAGTTATTAATGGATGAATAATGCCTCAATATAAATATCTCTCACTTATTTAAA	0.0612	0.105		
ACAGACGAAGGAGCCGCAAAGAAGTTATTAAGGTATCAATAATCCCTCAATATAAATATCTCTCACTTATTTAAA	0.106	0.125		
ACAGACGAAGGAGCCGCAAAGAAGTTATTAAGGGATGAATAATCCGTCAATAAAAATATCTCTCACTTATTTAAA		0.173		
CGACATGTCCCGCTTCTTTCATTAATACGTTAGCAACTGTTTTGCTATATACATGTACCTTTTAAGAGGAGGAAT			0.369	
CGACATGTCCCGCTTCTTTCATTAATCCGTTAGTAACTGTTTTGCTACATACATTTACCTTTTAAGAGGAGGAAT			0.318	
ACAGACGAAGGAGCCGCAAAGAAGTGATTAAGGGATGAATAATCCATCAATATAAATATCTCTCACTTATTTAAA	0.27	0.257		
CGACATGTCCCGCTTCTTTCATTAATCCGTTATCAACTGTTTTGCTATATAAATTTACCTTTTAAGAGGAGGAAT			0.243	
CGACATGTCCCGCTTCTTTCATTAATCCGTTAGCGACAGTTTTGCTATATACATTTACCTTTTAAGAGGAGGAAT			0.233	
ACAGACGAAGGAGCCGCAAAGAAGATATTAAGGGATGAATAATCCCTCACTATAAATATCTCTCACTTATTTAAA	0.149			
CGACATGTCCCGCTTCTTTCATTAATCCGTAAGCAACTGTTTTGCTAAATACATTTACCTTTTAAGAGGAGGAAT			0.36	
ACAGACGAAGGAGCCGCAAAGAAGTTATTAACGGATGGATAATCCCTCAATATAAATATCTCTCACTTATTTAAA		0.152		
CGACATGTCCCGCTTCTTTCATTAATCCGTTAGCAACTGTTTTGCTATATACACGTACCTTTTAAGAGGAGGAAT			0.835	
ACAGACGAAGGAGCCGCAAAGAAGTTATTATGGGATTAATAATCCCTCAATATAAATATCTCTCACTTATTTAAA	0.352	0.307		
CGACATGTCCCGCTTCTTTCATTAATCCGTTAACAACTGTTTTGCTATATACATTTACTTTTTAAGAGGAGGAAT			0.253	
ACAGACGAAGGAGCCGCAAAGAAGTTATTAAGGAATGAATAATCCCTCAATATAGATATCTCTCACTTATTTAAA		0.101		
ACAGACGAAGGAGCCGCAAAGAAGTTATTCAGGTATGAATAATCCCTCAATATAAATATCTCTCACTTATTTAAA		0.161		
ACAGACGAAGGAGCCGCAAAGAAGTTATTAAGCGATGAAGAATCCCTCAATATAAATATCTCTCACTTATTTAAA		0.0967		
CGACATGTCCCGCTTCTTTCATTAATTCGTTAGCAACTGTCTTGCTATATACATTTACCTTTTAAGAGGAGGAAT			0.981	
ACAGACGAAGGAGCCGCAAAGAAGTTATTAAGGGATGAATCATCCCCCAATATAAATATCTCTCACTTATTTAAA		0.296		
ACAGACGAAGGAGCCGCAAAGCAGTTATTAAGGGATGAATAATCCCTCAATATAAATATCTCTCACTTATTTAAA	0.905	0.958		0.944
ACAGACGAAGGAGCCGCAAAGAAGTTATTAAGGGATGTAGAATCCCTCAATATAAATATCTCTCACTTATTTAAA		0.768		

Sequence	cleaved RNA product abundance [1]	cleaved RNA product abundance [2]	cleaved RNA product abundance [3]	cleaved RNA product abundance [4]
CGACATGTCCCGCTTCTTTCATTAACCCGTTAGCAACTGTATTGCTATATACATTCACCTTTTAAGAGGAGGAAT			0.379	
CGACATGTCCCGCTTCTTTCATTAATGAGTTAGCAACTGTTTTGCTATATACATTTACCTTTTAAGAGGAGGAAT			1.18	
CGACATGTCCCGCTTCTTTCATTAATCAGTTAGCAACTGTTTTGCTATATACATTAACCTTTTAAGAGGAGGAAT			0.984	
ACAGACGAAGGAGCCGCAAAGAAGTTATAAAGGGATCAATAATCCCTCAATATAAATATCTCTCACTTATTTAAA	0.26	0.434		
ACAGACGAAGGAGCCGCTAAGATGTTATTAAGGGATGAATAATCCCTCAATATAAATATCTCTCACTTATTTAAA		1.18		
ACAGACGAAGGAGCCGCAAAGAAGTTATTAAGGGTTTAATAATCCCTCAATATAAATATCTCTCACTTATTTAAA	0.63	0.667		
ACAGACGAAGGAGCCGCAAAGAAGTTATTAAGGTATGAAAAATCCCTCAATATAAATATCTCTCACTTATTTAAA	0.0949	0.145		
CGACATGTCCCGCTTCTTTCATTAATCCGTTAGGAACTATTTTGCTATATACATTTACCTTTTAAGAGGAGGAAT			0.437	
ACAGACGAAGGAGCCGCAAAGAAGTTATTAAAGGATGATTAATCCCTCAATATAAATATCTCTCACTTATTTAAA	0.122	0.184		
ACAGACGAAGGAGCCGCAAAGAAGTTATTAAGGGATGAATAATCACTCAATATAGATATCTCTCACTTATTTAAA	0.143	0.116		
CGACATGTCCCGCTTCTTTCATTAATCCGTTAGCAACTGTTTTGCTATATAAATTTATCTTTTAAGAGGAGGAAT			2.04	
ACAGACGAAGGAGCCGCAATGAAGTTATTAAGGGCTGAATAATCCCTCAATATAAATATCTCTCACTTATTTAAA	0.583	0.472		
ACAGACGAAGGAGCCGCAAAGAAGTTATTAAGGGATGAATAATCCCTCAATATAACTATCTCTCACTTATTTAAA	0.201	0.146		0.267
ACAGACGAAGGAGCCGCAAAGAAGTTATCAATGGATGAATAATCCCTCAATATAAATATCTCTCACTTATTTAAA		0.146		
CGACATGTCCCGCTTCTTTCATTAATCCGTTAGCAACTGTTTTGCTATAGACATTTACCTTTTAAGAGGAGGAAT			0.624	
ACAGACGAAGGAGCCGCAAAGAAGTTATTAAGGGATGAATGATCCCTGAATATAAATATCTCTCACTTATTTAAA		0.383		
ACAGACGAAGGAGCCGCAAAGAAGTTATTAAAGGATGAATAGTCCCTCAATATAAATATCTCTCACTTATTTAAA	0.124			
ACAGACGAAGGAGCCGCAAAGAAGTTATTGAGGCATGAATAATCCCTCAATATAAATATCTCTCACTTATTTAAA	0.0906	0.0717		
ACAGACGAAGGAGCCGCAAAGAAGTTATTAAGGGAAGAATACTCCCTCAATATAAATATCTCTCACTTATTTAAA	0.632	1.01		
ACAGACGAAGGAGCCGCAAAGAAGTTTTTAACGGATGAATAATCCCTCAATATAAATATCTCTCACTTATTTAAA		0.197		0.192
ACAGACGAAGGAGCCGCAAAAAAGTTATTAAGGGATGAATAAGCCCTCAATATAAATATCTCTCACTTATTTAAA	0.639	0.793		
CGACATGTCCCGCTTCTTTCATTAATTCGTCAGCAACTGTTTTGCTATATACATTTACCTTTTAAGAGGAGGAAT			0.639	
